Measurements published in paper PMC4052767.

molecular target: Hat1p/Hat2p/H4_(1-48) complex (yeast (Saccharomyces cerevisiae) | yeast) (UniProt Q12341); assay: ITC
Sequence (Q12341 1-320, chain 1 of 3): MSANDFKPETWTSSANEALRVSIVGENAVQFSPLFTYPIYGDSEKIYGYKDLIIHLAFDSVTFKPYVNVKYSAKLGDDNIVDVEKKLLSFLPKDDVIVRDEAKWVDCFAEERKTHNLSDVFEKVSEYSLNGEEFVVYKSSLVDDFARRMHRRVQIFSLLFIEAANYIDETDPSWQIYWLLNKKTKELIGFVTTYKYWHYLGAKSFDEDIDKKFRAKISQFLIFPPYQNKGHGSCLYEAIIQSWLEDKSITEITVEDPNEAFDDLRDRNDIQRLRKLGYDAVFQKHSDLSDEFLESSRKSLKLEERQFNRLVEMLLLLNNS
Sequence (P39984 whole entry, chain 2 of 3, further chain): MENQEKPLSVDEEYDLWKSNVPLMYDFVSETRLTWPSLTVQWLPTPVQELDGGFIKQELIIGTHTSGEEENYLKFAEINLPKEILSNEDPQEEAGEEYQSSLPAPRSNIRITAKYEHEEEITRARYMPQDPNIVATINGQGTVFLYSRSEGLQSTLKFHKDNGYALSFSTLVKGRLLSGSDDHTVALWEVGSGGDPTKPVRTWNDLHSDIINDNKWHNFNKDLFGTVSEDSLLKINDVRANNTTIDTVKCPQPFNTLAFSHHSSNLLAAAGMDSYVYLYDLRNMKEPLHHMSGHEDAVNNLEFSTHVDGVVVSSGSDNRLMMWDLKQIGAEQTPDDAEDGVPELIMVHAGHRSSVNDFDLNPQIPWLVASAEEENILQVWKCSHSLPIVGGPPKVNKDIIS
Sequence (P02309 2-49, chain 3 of 3, further chain): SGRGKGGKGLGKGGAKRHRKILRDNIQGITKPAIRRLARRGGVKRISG

| Kd [µM] | Substance |
| --- | --- |
| 11.6 | H3K4me3 peptide |
| 4.78 | H3K4me2 peptide |
| 2.48 | H3K4me1 peptide |
| 0.34 | H3 peptide (residues 1-15), unmodified (from UniProt P61830 2-16) |
